Assay results reported in article PMC4789106 (Biochemistry, 2015).
Read-outs that look alike come from different tables or passages of the source.

B1: Y571-R588 peptide of TGFBIp (peptide, UniProt Q15582 571-588, looked up)
peptide: YHIGDEILVSGGIGALVR
B2: Recombinant WT TGFBIp (natural protein, human, UniProt Q15582 24-683, looked up)
chain: GPAKSPYQLVLQHSRLRGRQHGPNVCAVQKVIGTNRKYFTNCKQWYQRKICGKSTVISYECCPGYEKVPGEKGCPAALPLSNLYETLGVVGSTTTQLYTDRTEKLRPEMEGPGSFTIFAPSNEAWASLPAEVLDSLVSNVNIELLNALRYHMVGRRVLTDELKHGMTLTSMYQNSNIQIHHYPNGIVTVNCARLLKADHHATNGVVHLIDKVISTITNNIQQIIEIEDTFETLRAAVAASGLNTMLEGNGQYTLLAPTNEAFEKIPSETLNRILGDPEALRDLLNNHILKSAMCAEAIVAGLSVETLEGTTLEVGCSGDMLTINGKAIISNKDILATNGVIHYIDELLIPDSAKTLFELAAESDVSTAIDLFRQAGLGNHLSGSERLTLLAPLNSVFKDGTPPIDAHTRNLLRNHIIKDQLASKYLYHGQTLETLGGKKLRVFVYRNSLCIENSCIAAHDKRGRYGTLFTMDRVLTPPMGTVMDVLKGDNRFSMLVAAIQSAGLTETLNREGVYTVFAPTNEAFRALPPRERSRLLGDAKELANILKYHIGDEILVSGGIGALVRLKSLQGDKLEVSLKNNVVSVNKEPVAEPDIMATNGVVHVITNVLQPPANRPQERGDELADSALEIFKQASAFSRASQRSVRLAPVYQKLLERMKH

Legend:
[1] = target: the molecule itself; experiment: ThT fluorescence fibrillation assay + TEM
[2] = target: B1; experiment: pull-down
[3] = target: B1; experiment: pull-down
Recombinant WT TGFBIp = target: B2; experiment: pull-down
[4] = target: the molecule itself; experiment: centrifugation and limited trypsin proteolysis of fibrils

Row | binding result (Recombinant WT TGFBIp) | Binder | binding result [1] | other results
1 |  | B1 | binds | 
2 |  | Transforming growth factor beta-induced protein (TGFBIp) from human corneal stroma extract (natural protein, human (endogenous in corneal stroma), UniProt Q15582 24-683, looked up) GPAKSPYQLVLQHSRLRGRQHGPNVCAVQKVIGTNRKYFTNCKQWYQRKICGKSTVISYECCPGYEKVPGEKGCPAALPLSNLYETLGVVGSTTTQLYTDRTEKLRPEMEGPGSFTIFAPSNEAWASLPAEVLDSLVSNVNIELLNALRYHMVGRRVLTDELKHGMTLTSMYQNSNIQIHHYPNGIVTVNCARLLKADHHATNGVVHLIDKVISTITNNIQQIIEIEDTFETLRAAVAASGLNTMLEGNGQYTLLAPTNEAFEKIPSETLNRILGDPEALRDLLNNHILKSAMCAEAIVAGLSVETLEGTTLEVGCSGDMLTINGKAIISNKDILATNGVIHYIDELLIPDSAKTLFELAAESDVSTAIDLFRQAGLGNHLSGSERLTLLAPLNSVFKDGTPPIDAHTRNLLRNHIIKDQLASKYLYHGQTLETLGGKKLRVFVYRNSLCIENSCIAAHDKRGRYGTLFTMDRVLTPPMGTVMDVLKGDNRFSMLVAAIQSAGLTETLNREGVYTVFAPTNEAFRALPPRERSRLLGDAKELANILKYHIGDEILVSGGIGALVRLKSLQGDKLEVSLKNNVVSVNKEPVAEPDIMATNGVVHVITNVLQPPANRPQERGDELADSALEIFKQASAFSRASQRSVRLAPVYQKLLERMKH |  | amount of TGFBIp bound, fold against F515-R533 fibrils [2]: ~3 times
3 |  | B2 |  | amount of TGFBIp bound, fold against F515-R533 fibrils [3]: ~1.6 times
4 | binds | A546T FAS1-4 (fourth fasciclin 1 domain of TGFBIp with the A546T substitution) (domain or fragment, human) AGMGTVMDVLKGDNRFSMLVAAIQSAGLTETLNREGVYTVFAPTNETFRALPPRERSRLLGDAKELANILKYHIGDEILVSGGIGALVRLKSLQGDKLEVSLKNNVVSVNKEPVAEPDIMATNGVVHVITNVLQPPANRPQERGDELADSALEIFKQA |  | binding result [4]: binds
5 | binds | FSMLVAAIQSAGLTETLNR (peptide, UniProt Q15582 515-533, looked up) [F515-R533 peptide of TGFBIp] | binds | 
